Results as given in publication PMC8934648, “The MukB-topoisomerase IV interaction mutually suppresses their catalytic activities” (Nucleic Acids Research, 2021).

T1: MukB (Escherichia coli, UniProt P22523 1-1486)
T1 sequence: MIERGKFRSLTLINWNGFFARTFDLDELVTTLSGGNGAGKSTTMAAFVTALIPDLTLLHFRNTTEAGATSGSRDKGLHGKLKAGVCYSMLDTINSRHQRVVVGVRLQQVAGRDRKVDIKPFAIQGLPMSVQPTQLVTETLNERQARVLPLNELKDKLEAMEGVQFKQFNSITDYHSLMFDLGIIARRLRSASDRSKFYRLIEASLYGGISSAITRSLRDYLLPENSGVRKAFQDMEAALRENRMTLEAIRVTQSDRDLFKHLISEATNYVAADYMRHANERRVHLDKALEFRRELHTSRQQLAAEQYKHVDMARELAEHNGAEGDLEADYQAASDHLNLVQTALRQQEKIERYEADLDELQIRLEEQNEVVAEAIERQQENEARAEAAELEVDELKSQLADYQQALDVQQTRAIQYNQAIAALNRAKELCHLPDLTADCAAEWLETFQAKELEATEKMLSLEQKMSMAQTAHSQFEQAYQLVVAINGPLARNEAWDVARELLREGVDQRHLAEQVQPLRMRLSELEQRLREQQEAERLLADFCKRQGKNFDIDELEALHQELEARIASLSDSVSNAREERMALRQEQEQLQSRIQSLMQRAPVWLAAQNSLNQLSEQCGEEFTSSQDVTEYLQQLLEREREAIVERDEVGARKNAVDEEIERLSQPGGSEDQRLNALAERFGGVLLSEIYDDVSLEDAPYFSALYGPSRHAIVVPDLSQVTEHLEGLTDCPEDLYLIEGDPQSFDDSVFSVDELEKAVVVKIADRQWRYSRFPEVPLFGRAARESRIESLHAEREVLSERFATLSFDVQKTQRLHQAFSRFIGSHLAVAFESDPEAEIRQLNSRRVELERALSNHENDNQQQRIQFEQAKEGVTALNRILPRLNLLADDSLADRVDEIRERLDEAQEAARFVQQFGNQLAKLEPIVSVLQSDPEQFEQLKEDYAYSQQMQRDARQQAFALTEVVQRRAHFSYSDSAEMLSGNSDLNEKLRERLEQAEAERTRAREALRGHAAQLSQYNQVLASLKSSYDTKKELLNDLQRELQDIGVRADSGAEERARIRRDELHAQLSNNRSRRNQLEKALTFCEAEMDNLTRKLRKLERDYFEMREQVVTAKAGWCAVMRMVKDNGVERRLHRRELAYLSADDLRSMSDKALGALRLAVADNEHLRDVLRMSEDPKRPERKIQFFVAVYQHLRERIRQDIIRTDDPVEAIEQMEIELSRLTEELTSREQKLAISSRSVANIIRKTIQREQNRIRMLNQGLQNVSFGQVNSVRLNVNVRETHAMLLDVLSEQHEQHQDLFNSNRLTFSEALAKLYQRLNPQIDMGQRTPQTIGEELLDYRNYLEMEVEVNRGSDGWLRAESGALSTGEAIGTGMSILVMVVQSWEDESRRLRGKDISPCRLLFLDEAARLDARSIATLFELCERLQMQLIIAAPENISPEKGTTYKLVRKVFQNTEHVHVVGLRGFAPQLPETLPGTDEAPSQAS

T2: MukBtriple (MukB3X) (Escherichia coli, UniProt P22523 1-1486, D697K;D745K;E753K)
T2 sequence: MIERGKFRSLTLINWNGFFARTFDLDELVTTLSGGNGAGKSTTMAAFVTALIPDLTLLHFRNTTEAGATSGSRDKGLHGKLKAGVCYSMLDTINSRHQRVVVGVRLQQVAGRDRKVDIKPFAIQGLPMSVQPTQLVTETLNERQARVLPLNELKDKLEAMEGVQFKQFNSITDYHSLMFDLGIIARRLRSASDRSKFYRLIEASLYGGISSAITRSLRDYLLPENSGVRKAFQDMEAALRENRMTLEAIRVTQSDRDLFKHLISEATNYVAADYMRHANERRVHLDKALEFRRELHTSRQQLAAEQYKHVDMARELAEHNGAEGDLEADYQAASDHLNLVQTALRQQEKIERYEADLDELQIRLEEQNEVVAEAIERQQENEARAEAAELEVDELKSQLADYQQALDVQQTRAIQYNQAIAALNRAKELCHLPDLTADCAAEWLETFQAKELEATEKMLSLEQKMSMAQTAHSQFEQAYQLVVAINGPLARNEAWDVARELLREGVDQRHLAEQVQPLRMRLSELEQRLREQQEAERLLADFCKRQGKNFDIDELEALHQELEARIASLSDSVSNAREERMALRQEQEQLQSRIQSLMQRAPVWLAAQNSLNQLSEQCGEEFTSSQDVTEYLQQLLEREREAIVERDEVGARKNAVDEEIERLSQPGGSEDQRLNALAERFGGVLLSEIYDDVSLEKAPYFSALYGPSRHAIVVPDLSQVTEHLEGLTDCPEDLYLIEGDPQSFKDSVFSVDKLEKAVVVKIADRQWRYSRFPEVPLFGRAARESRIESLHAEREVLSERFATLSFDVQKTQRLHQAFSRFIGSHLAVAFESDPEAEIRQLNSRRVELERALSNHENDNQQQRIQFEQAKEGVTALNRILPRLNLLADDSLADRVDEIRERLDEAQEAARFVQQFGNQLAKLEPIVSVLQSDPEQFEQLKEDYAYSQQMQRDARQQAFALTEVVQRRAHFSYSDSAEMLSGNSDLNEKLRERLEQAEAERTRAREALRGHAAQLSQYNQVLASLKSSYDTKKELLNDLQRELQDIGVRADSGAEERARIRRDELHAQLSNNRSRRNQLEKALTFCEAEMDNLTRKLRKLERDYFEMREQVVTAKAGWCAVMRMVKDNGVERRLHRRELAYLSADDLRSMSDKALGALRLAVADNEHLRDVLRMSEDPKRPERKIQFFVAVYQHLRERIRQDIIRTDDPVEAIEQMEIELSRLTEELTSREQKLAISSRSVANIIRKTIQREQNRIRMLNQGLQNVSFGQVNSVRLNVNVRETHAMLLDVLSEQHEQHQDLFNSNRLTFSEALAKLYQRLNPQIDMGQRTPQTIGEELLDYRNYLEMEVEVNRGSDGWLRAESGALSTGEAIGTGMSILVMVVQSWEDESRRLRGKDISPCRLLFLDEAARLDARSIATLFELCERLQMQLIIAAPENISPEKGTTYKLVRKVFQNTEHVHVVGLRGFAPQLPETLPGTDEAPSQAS

T3: MukB (E. coli, UniProt P22523 1-1486)
T3 construct: MukB, SMC-like condensin of Escherichia coli; also called condensin MukB; wild-type MukB
T3 sequence (looked up): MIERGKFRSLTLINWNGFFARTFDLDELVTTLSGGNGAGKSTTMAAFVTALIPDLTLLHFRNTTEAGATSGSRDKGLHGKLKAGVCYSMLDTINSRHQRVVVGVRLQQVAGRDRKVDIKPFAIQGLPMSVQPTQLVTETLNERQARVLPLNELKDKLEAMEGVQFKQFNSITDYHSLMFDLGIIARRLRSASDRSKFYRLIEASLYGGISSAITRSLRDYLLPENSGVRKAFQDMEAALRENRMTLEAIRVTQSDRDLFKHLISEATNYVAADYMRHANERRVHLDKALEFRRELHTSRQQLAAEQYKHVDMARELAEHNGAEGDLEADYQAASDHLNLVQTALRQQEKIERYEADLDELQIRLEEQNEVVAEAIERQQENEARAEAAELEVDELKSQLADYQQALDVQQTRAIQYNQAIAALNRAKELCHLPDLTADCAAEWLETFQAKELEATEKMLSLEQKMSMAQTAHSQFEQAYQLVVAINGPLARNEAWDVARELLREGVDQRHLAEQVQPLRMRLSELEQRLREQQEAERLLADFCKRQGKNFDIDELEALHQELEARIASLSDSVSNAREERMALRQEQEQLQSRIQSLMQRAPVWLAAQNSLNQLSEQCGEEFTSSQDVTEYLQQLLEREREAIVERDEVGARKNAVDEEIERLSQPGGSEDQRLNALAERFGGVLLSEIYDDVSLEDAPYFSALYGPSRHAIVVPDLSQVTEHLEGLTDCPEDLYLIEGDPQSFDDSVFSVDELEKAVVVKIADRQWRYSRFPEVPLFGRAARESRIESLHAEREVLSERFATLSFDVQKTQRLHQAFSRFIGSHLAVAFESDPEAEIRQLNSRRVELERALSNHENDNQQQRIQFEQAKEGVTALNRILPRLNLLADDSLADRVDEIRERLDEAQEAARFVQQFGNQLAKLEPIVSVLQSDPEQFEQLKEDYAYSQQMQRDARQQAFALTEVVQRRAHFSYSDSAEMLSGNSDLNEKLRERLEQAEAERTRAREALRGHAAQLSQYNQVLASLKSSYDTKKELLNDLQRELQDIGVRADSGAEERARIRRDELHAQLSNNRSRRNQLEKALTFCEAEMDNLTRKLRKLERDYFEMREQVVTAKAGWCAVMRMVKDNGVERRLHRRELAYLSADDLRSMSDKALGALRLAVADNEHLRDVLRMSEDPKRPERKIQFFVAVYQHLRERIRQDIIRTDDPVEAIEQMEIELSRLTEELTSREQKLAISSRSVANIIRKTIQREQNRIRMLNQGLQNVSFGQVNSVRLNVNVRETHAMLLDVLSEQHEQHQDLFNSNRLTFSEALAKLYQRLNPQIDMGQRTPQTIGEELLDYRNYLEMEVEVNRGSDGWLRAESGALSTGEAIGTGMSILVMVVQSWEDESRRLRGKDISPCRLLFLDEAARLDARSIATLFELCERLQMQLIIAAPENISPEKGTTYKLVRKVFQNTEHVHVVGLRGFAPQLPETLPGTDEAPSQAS

B1: 50mer duplex DNA (dsDNA)
DNA 1: ATCTCGGGCTATTCTTTTGATTTATAAGGGATTTTGCCGATTTCGGAACC
DNA 2: GGTTCCGAAATCGGCAAAATCCCTTATAAATCAAAAGAATAGCCCGAGAT
B2: ParC subunit of topoisomerase IV (natural protein, E. coli, UniProt P0AFI2 1-752, looked up)
chain: MSDMAERLALHEFTENAYLNYSMYVIMDRALPFIGDGLKPVQRRIVYAMSELGLNASAKFKKSARTVGDVLGKYHPHGDSACYEAMVLMAQPFSYRYPLVDGQGNWGAPDDPKSFAAMRYTESRLSKYSELLLSELGQGTADWVPNFDGTLQEPKMLPARLPNILLNGTTGIAVGMATDIPPHNLREVAQAAIALIDQPKTTLDQLLDIVQGPDYPTEAEIITSRAEIRKIYENGRGSVRMRAVWKKEDGAVVISALPHQVSGARVLEQIAAQMRNKKLPMVDDLRDESDHENPTRLVIVPRSNRVDMDQVMNHLFATTDLEKSYRINLNMIGLDGRPAVKNLLEILSEWLVFRRDTVRRRLNYRLEKVLKRLHILEGLLVAFLNIDEVIEIIRNEDEPKPALMSRFGLTETQAEAILELKLRHLAKLEEMKIRGEQSELEKERDQLQGILASERKMNNLLKKELQADAQAYGDDRRSPLQEREEAKAMSEHDMLPSEPVTIVLSQMGWVRSAKGHDIDAPGLNYKAGDSFKAAVKGKSNQPVVFVDSTGRSYAIDPITLPSARGQGEPLTGKLTLPPGATVDHMLMESDDQKLLMASDAGYGFVCTFNDLVARNRAGKALITLPENAHVMPPVVIEDASDMLLAITQAGRMLMFPVSDLPQLSKGKGNKIINIPSAEAARGEDGLAQLYVLPPQSTLTIHVGKRKIKLRPEELQKVTGERGRRGTLMRGLQRIDRVEIDSPRRASSGDSEE
notes: ParC, breakage and reunion subunit of topoisomerase IV of Escherichia coli; also called wild-type ParC; Cwt

Legend:
MukB [1] = molecular target: T1, MukB; assay: DNA binding assay (method not stated in material); 0.5 mM Mg(OAc)2; apparent Kd; 50 mer binding: 50 mM HEPES-KOH pH 7.5, 10 mM DTT, 20 mM KCl, 0.5 mM Mg(OAc)2, 5 nM DNA; pull-down: same buffer plus 7.5% glycerol, 0.05% NP-40, loading at room temperature, assay at 37 C; settings: protein: recombinant; chain copies: 2; label: 5'-32P; blunt
MukBtriple (MukB3X) = molecular target: T2, MukBtriple (MukB3X); assay: as above; settings: protein: recombinant; chain copies: 2; label: 5'-32P; blunt
MukB [2] = molecular target: T3, MukB; assay: pull-down; MukB (125 nM) held on Dynabeads Protein A through affinity-purified MukB polyclonal antibodies; varying ParC; 50 mM HEPES-KOH pH 7.5, 50 mM KCl, 0.5 mM Mg(OAc)2, 7.5% glycerol, 0.05% IGEPAL, 15 min at 37°C; bound protein read from SDS-PAGE bands; fit to the Hill equation; KD dimer to dimer; settings: both partners purified

| Binder | Kd (MukB [1]) | Kd (MukBtriple (MukB3X)) | Kd (MukB [2]) |
| --- | --- | --- | --- |
| B1 | 120 nM | 30 nM |  |
| B2 |  |  | 115 nM |
